Source: paper PMC9015148 (2022)

Tests used:
RSV_FixBB = RSV_FixBB (UniProt P0AFA2); experiment: SPR
Surf_03 = Surf_03 (UniProt P0AFA2); experiment: SPR

B1: D25 Fab (Fab, V domains shown)
VH: QVQLVQSGAEVKKPGSSVMVSCQASGGPLRNYIINWLRQAPGQGPEWMGGIIPVLGTVHYAPKFQGRVTITADESTDTAYIHLISLRSEDTAMYYCATETALVVSTTYLPHYFDNWGQGTLVTVSS
VL: DIQMTQSPSSLSAAVGDRVTITCQASQDIVNYLNWYQQKPGKAPKLLIYVASNLETGVPSRFSGSGSGTDFSLTISSLQPEDVATYYCQQYDNLPLTFGGGTKVEIK
Kd (RSV_FixBB): 99 nM
Kd (Surf_03): 360 nM
